In patent publication US20230406951A1 (Pfizer, published 2023):
Where a chain is given by its changes, count along the chain named.

Key:
human TNFR2 [1] = target: T1, human TNFR2 (human, UniProt P20333 23-461); test: binding to CHO cells over-expressing human TNFR2
T1 construct: Human TNFR2 over-expressed on CHO cells, full length on transduced NF-KB-GFP Jurkat cells, or native on human primary T cells; also called Hu TNFR2; TNFRSF1B
T1 sequence: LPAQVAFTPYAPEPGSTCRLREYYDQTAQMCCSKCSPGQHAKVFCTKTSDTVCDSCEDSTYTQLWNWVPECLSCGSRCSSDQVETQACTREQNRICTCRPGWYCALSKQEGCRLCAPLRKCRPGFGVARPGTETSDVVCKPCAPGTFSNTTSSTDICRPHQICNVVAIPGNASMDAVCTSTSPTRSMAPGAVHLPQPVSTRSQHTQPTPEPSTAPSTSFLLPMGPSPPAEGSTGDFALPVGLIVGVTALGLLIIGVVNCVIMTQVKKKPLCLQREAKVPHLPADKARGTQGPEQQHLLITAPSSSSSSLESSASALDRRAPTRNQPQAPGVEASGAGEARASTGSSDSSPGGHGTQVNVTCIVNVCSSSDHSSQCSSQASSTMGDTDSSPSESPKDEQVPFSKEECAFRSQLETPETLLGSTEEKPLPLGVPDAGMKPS

human TNFR2 [2] = target: T1, human TNFR2; test: cell-based or functional assay
human TNFR2 [3] = target: T1, human TNFR2; test: cell-based or functional assay; remark: listed apart in the source
human TNFR2 [4] = target: T1, human TNFR2; test: binding to human TNFR2 CHO cells
cynomolgus monkey TNFR2 [5] = target: T2, cynomolgus monkey TNFR2 (cynomolgus monkey, UniProt P20333 23-461 (human entry)); test: binding to CHO cells over-expressing cyno TNFR2
T2 construct: Cyno TNFR2 over-expressed on CHO cells or native on cyno primary cells; also called Cy TNFR2; cyno TNFR2
T2 chain: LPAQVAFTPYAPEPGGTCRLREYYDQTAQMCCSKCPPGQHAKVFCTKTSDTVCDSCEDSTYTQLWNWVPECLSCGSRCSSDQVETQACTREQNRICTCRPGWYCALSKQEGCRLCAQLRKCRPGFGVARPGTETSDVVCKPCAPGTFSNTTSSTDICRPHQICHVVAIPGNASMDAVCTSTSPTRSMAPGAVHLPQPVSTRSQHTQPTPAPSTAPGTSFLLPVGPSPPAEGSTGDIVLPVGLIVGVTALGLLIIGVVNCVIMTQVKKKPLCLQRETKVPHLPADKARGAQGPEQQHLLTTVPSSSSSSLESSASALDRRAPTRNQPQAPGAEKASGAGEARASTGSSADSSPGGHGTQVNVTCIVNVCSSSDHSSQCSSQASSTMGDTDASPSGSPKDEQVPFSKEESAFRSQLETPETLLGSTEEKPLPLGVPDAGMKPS

human TNFR2 [6] = target: T1, human TNFR2; test: cell-based or functional assay; remark: listed apart in the source
cynomolgus monkey TNFR2 [7] = target: T2, cynomolgus monkey TNFR2; test: cell-based or functional assay
biotinylated cyno TNFR2 = target: T3, biotinylated cyno TNFR2 (cynomolgus monkey, UniProt P20333 23-257 (human entry), limits assumed, biotinylated); test: SPR (BIAcore), biotinylated TNFR2 captured on streptavidin chip, antibody as analyte (apparent affinity)
T3 construct: Soluble biotinylated protein captured on a streptavidin chip for SPR; also called CyTNFR2
T3 chain: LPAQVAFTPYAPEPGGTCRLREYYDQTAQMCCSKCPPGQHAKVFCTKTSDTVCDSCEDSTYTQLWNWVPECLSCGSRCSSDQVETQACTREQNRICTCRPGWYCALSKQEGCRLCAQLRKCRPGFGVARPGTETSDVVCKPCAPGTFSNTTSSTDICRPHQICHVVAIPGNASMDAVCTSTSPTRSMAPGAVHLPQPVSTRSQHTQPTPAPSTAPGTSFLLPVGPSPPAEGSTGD
Method: (§1) Increased avidity was confirmed by Surface Plasmon Resonance (SPR) using a BIAcore. Briefly, biotinylated human- or cyno-TNFR2 was captured on the surface of a streptavidin chip for 60 seconds at a flow rate of […]. […] The dissociation phase was then initiated with running buffer (HBS-EP+) injected for 600 seconds at […]. Data were analyzed using the Biacore Evaluation Software.

biotinylated human TNFR2 = target: T4, biotinylated human TNFR2 (human, UniProt P20333 23-257, biotinylated); test: as above
T4 construct: Soluble biotinylated protein captured on a streptavidin chip for SPR; also called HuTNFR2
T4 sequence: T3 chain with G16S, P36S, Q117P, H164N, A210E, G216S, V223M
Method: as §1

cynomolgus monkey TNFR2 [8] = target: T2, cynomolgus monkey TNFR2; test: binding to cyno TNFR2 CHO cells (repeats Table 1)
human TNFR2 [9] = target: T1, human TNFR2; test: binding to human TNFR2 CHO cells (repeats Table 1)
human TNFR2 [10] = target: T1, human TNFR2; test: cell-based or functional assay; remark: listed apart in the source
cynomolgus monkey TNFR2 [11] = target: T2, cynomolgus monkey TNFR2; test: cell-based or functional assay
human TNFR2 [12] = target: T1, human TNFR2; test: binding to human TNFR2 CHO cells; remark: listed apart in the source
human TNFR2 [13] = target: T5, human TNFR2 (human, UniProt P20333 23-461); test: binding to human TNFR2 CHO cells, IgG format
T5 construct: expressed on the surface of CHO cells; also called HuTNFR2; TNFRSF1B
T5 sequence: T1 sequence

B1: GBT-TNFR2-854 (parental) (antibody, human IgG2, kappa, V domains shown)
VH: QVQLKESGPGLVAPSQSLSITCTVSGFSFPSSGVDWVRQSPGKGLEWLGVTWGVGSTHYNSALKSRLSISKDNSKSQVFLKMNSLQTEDTAIYYCASGEWDEGFVYWGQGTLVTVSA
VL: DIVMTQSQKFMSTTVGDRVSITCKASQNVGTAVAWYQQKPGQSPKLLIYSASNRYTGVPDRFTGSGSGTDFTLTISNMQSEDLADYFCQQYSSYPLTFGGGTKLEIKR
notes: Chimeric mouse V / human IgG2 effector-null, kappa; same hybridoma clone as IgG1 825
EC50 (human TNFR2 [1]): 0.106 µg/mL
EC50 Jurkat (human TNFR2 [2]): 0.526 µg/mL
Jurkat (ng/ml), EC50 in NF-KB-GFP reporter assay (human TNFR2 [3]): 711 ng/mL
EC50 (human TNFR2 [4]): 1.13 nM
EC50 (cynomolgus monkey TNFR2 [5]): 0.13 µg/mL
EC50 HuPBMC (ICAM-1 up-regulation) (human TNFR2 [6]): 1.4 µg/mL
EC50 CyPBMC (CD25+/Ki67+ of CD4+ cells) (cynomolgus monkey TNFR2 [7]): 27.2 µg/mL
Kd (biotinylated cyno TNFR2): 0.89 nM
koff (biotinylated cyno TNFR2): 0.00996 s⁻¹
kon (biotinylated cyno TNFR2): 1.12e+07 M⁻¹ s⁻¹
Kd (biotinylated human TNFR2): 0.11 nM
koff (biotinylated human TNFR2): 0.00125 s⁻¹
kon (biotinylated human TNFR2): 1.13e+07 M⁻¹ s⁻¹
EC50 (cynomolgus monkey TNFR2 [8]): 0.13 µg/mL
EC50 (human TNFR2 [9]): 0.106 µg/mL
EC50 (HuPBMC) (human TNFR2 [10]): 1.4 nM
Jurkat EC50 (human TNFR2 [10]): 1.74 µg/mL
EC50 (CyPBMC) (cynomolgus monkey TNFR2 [11]): 15 nM
EC50 (human TNFR2 [12]): 1.13 nM

B2: GBT-TNFR2-1765 (antibody, human IgG2, kappa, V domains shown)
VH: QVQLVQSGAEVKKPGASVKVSCKVSGFSFPSSGVDWVRQAPGQGLEWLGVTWGVGSTHYNQKFQGRVTITKDTSKSTVYMELSSLRSEDTAVYYCASGEWDEGFVYWGQGTLVTVSS
VL: DIQLTQSPSFLSASVGDRVTITCKASQNVGTAVAWYQQKPGKAPKLLIYAASTLQSGVPSRFSGSGSGTEFTLTISSLQPEDFATYYCQQYSSYPLTFGGGTKVEIKR
EC50 (human TNFR2 [13]): 0.67 nM
